From publication PMC3961693

Biological target: IL-6 (human) (UniProt P05231)
Details: 32 nt; six 2'-O-methyl; eight Bn-dU; one Pe-dU; one Nap-dU (position 12); Bn-dU at 7, 8, 14, 15, 22, 23, 27, 30 named in text; binding assay method and buffer not given in the …

Sequence of IL-6 (human) (P05231 30-212): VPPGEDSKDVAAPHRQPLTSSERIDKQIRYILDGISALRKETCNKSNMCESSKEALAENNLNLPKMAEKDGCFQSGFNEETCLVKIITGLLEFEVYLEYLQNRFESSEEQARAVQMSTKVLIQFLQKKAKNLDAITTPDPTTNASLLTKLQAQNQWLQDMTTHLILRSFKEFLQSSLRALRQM

In the case of “GGCAGGUUUGGUAUUAACACGUUAAGUCGUGG [SL1025]”, the Kd is reported as 0.2 nM.
